Experimental data reported in the supplement of paper PMC10567573.

B1: CLCN6 (parent)
chain: MAGCRGSLCCCCRWCCCCGERETR
B2: RAB40A (parent)
chain: NWLGRPSKVLSLQDLCCRTIVSCT

Variants of: B1
Assay: protein stability index of a GFP-peptide fusion (GPS, HEK-293T) (PSI 1-6); higher = more stable
Conditions: c terminus: a fixed tail appended
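Note: lentivirally expressed fusions sorted by FACS into six bins by GFP to DsRed ratio, PSI derived from sequencing read proportions per bin multiplied by bin number.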

Protein stability index of substitutions, site by site:
E22: F 2.16 | H 1.73 | I 2.15 | K 1.49 | L 2.3 | M 1.65 | N 1.48 | P 2.12 | Q 1.83 | R 1.69 | S 1.65 | T 2.09
T23: C 2.73 | D 2.15 | G 1.78 | M 1.87 | N 2.15 | P 1.83 | Q 1.8 | R 1.77 | S 2.36 | W 2.78 | Y 1.79
R24: C 3.05 | D 2.79 | E 2.95 | F 1.79 | G 2.44 | H 2.55 | I 1.87 | K 2.78 | L 2.73 | M 1.91 | N 2.74 | P 2.38 | Q 2.54 | S 2.57 | T 2.71 | Y 2.44

Variants of: B2
Assay: as above
Conditions: c terminus: a fixed tail appended

Protein stability index of substitutions, site by site:
C17: Y 2.22 | G 2.34 | F 2.53 | E 3.08 | V 2.6 | Q 3.09 | L 2.77 | N 2.95 | D 2.79 | S 2.75 | K 3.26 | P 1.74 | H 2.88 | M 2.54
K8: A 1.98 | Y 1.96 | P 2.29 | Q 1.97 | F 2.35 | M 1.75 | I 2.11 | V 1.89 | E 2.26 | W 2.33 | L 2 | D 2.1 | T 1.88 | R 2.65
C23: E 2.8 | S 2.95 | V 2.21 | D 3.12 | Q 3.46 | P 2.68 | A 2.74 | M 2.33 | G 3.28 | I 2.33 | R 2.92
L12: Q 2.31 | N 1.46 | P 1.48 | H 2.31 | T 1.81 | Y 3.31 | W 2.25 | M 1.95 | V 2.87 | R 2.23 | F 2.75
W2: H 3.05 | G 3.23 | V 2.71 | P 2.81 | F 2.64 | K 3.11 | N 3.23 | S 2.96 | Y 2.68 | R 3 | E 3.18
L10: Q 2.24 | I 2.41 | M 2.56 | V 2.09 | P 2.62 | A 2.52 | G 2.64 | K 2.35 | H 2.07 | C 2.04 | T 2.49
V9: N 2.4 | E 2.3 | A 2.31 | L 2.12 | K 2.29 | Q 2.2 | M 2.23 | T 2.45 | S 2.05 | G 2.32 | C 2.07 | F 1.93
S11: R 2.2 | Y 2.03 | M 1.97 | G 1.54 | Q 2.11 | K 2.67 | C 1.66 | F 1.67 | H 1.92 | W 1.77 | V 2.74 | P 2.14
P6: D 2.48 | R 2.29 | G 2.25 | I 2.4 | C 2.13 | K 2.06 | Y 1.88 | S 2.38 | T 2.14 | E 2.55 | N 2.66 | W 2.11
T24: H 2.64 | Q 3.19 | P 3.02 | V 2.28 | S 2.62 | D 2.85 | Y 2.13 | G 2.6 | C 2.07 | W 2.2 | F 2.63
R5: N 2.56 | T 2.42 | Q 2.55 | C 2.76 | W 3.09 | E 2.7 | G 2.35 | A 2.46 | D 2.51 | S 2.69 | P 3.14 | I 2.2
L15: G 1.74 | Q 2.42 | Y 2.15 | F 1.45 | R 2.51 | N 2.18 | C 1.89 | W 2.1 | M 2.13 | S 1.96 | D 2.02
D14: M 1.58 | N 2.29 | R 1.51 | G 2.45 | Q 2.12 | S 2.07 | E 2.54 | F 2.14 | V 1.72 | K 1.9 | A 1.99
Q13: P 1.68 | M 2.12 | E 2.41 | F 2.75 | C 2.42 | Y 2.42 | I 2.93 | D 1.61 | N 1.8 | S 2.67 | L 2.44 | T 2.51 | K 2.86
V21: D 3.02 | I 2.31 | Y 2.08 | K 2.55 | R 3.04 | P 2.89 | L 2.04 | Q 2.8 | E 1.88 | S 2.77 | W 2.46 | H 2.44 | C 2.41
L3: C 2.39 | Q 2.85 | R 2.56 | M 2.2 | S 2.64 | Y 2.51 | W 2.11 | H 2.3 | G 2.69 | D 2.62 | P 2.58 | E 2.75 | T 2.95
S7: E 2.12 | M 2.03 | L 2.13 | R 2.02 | A 2.24 | K 2.59 | P 2.27 | N 1.95 | Y 1.92 | I 2.25 | D 2.28 | W 1.82
C16: K 2.25 | L 2.02 | P 2.02 | D 2.2 | E 1.9 | W 2.79 | H 1.58 | V 2.19 | M 1.98 | Q 1.51 | T 2.06
R18: W 1.83 | S 2.58 | K 2.65 | M 1.72 | Y 1.73 | P 1.61 | A 2.03 | V 2.39 | T 2.26 | N 2.5
I20: C 2.32 | R 2.54 | A 1.94 | T 1.73 | F 1.89 | G 2.47 | S 2.08 | L 2.74 | D 2.4 | E 2.04 | P 2.42 | N 1.91 | Q 2.26
T19: I 2.6 | N 2.91 | R 2.19 | H 2.41 | Y 2.23 | W 1.97 | M 2.27 | Q 2.31 | V 2.22 | G 2.07 | A 2.52 | E 2.53 | K 2.69 | C 2.04 | S 2.51 | L 2.16
G4: C 1.5 | S 2.21 | A 2.73 | D 2.57 | W 2.09 | R 2.42 | Y 2.35 | M 2.34 | K 2.48 | V 2.56 | H 2.33 | Q 2.34 | N 2.27 | L 2.29 | P 2.42 | I 2.13 | F 2.23 | T 2.07
S22: A 2.23 | P 2 | Y 1.95 | M 2.61 | R 2.77 | I 1.88 | L 2.31 | H 2.26 | D 2.83 | T 2.4 | C 2.59 | Q 2.59
N1: L 1.62 | A 2.04 | K 1.97 | Y 1.83 | T 2.16 | G 3.03 | M 1.75 | R 2.21 | W 2.22 | F 2.16 | D 2.12
